1 substance from paper PMC3240820 can be followed below.

The assay deals with C-terminal His-tagged Caskin1 SAM mutant G520E (human) (UniProt Q8WXD9). Put plainly: SPR.
C-terminal His-tagged Caskin1 SAM mutant G520E (human), sequence (Q8WXD9 470-605 G520E): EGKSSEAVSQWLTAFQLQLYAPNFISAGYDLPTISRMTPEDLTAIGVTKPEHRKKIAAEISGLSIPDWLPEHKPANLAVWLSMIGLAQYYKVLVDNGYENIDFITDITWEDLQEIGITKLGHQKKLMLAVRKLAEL

As to “Caskin1 SAM mutant G566K (from UniProt Q8WXD9 470-605) (domain or fragment)”, the Kd was 22 µM.
